# Measured values from article PMC314469, “Protein Interaction Networks by Proteome Peptide Scanning” (PLoS Biology, 2004).
# T1: amphyphisin SH3 (AMPH_HUMAN), P49418
# T1 chain: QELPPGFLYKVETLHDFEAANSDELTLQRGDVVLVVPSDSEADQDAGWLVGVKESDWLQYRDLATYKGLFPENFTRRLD
# Biological target: endophilin SH3 (SH3G2_HUMAN), Q99962
# Assay: SPOT array
row,"normalised SPOT signal, Boehringer light units (BLU); mean over the file's lines of this peptide",Binder
1,3620,LPLPPARPPVLHSS [O95098 58-72]
2,680,LPLPFSRPQKIYHF [O95047 163-176]
3,4260,LPPKPARPPAVSPA [O60885 879-893]
4,210,LQGIFTRPSKLTRQ [O43611 94-107]
5,21.1,LQAELRRPPPAPAQ [O94766 54-67]
6,820,APQPPGRPPTPGPP [Q14957 973-987]
7,77.6,AAPPPAKPPPPPQP [O15399 900-914]
8,79,LPPLPHRPPQNPFV [P42694 1701-1715]

# More lines, now with the values behind:
row,Binder,"normalised SPOT signal, Boehringer light units (BLU); mean over the file's lines of this peptide"
1,LPRSPPRPPRLWSF [Q9UKB5 52-66],24000
2,LPPLPKRPALEKTN [Q9NR56 294-307],2280
3,LPKHLRRPEPSKPQ [Q96M07 127-140],12.8
4,LPPDIERPYKAEPL [Q9Y4U3 288-301],95.9
5,LPQWPRRPGRRWPA [Q9Y6F2 30-43],7880
6,LPLPPPRPPLLSAR [Q9P0P4 137-151],8510
7,LPKGLGRPGKGHYW [Q12946 84-97],104
8,LQFRIRRPRPPARG [Q96QS4 5-18],48.5
9,LPVSLTRPPKLVLH [Q9Y2E6 378-391],272

# Biological target: T1, amphyphisin SH3 (AMPH_HUMAN), P49418
# Assay: SPOT array
row,"normalised SPOT signal, Boehringer light units (BLU); mean over the file's lines of this peptide",Binder
1,1580,LPLPPARPPVLHSS [O95098 58-72]
2,428,LPLPFSRPQKIYHF [O95047 163-176]
3,215,LPPKPARPPAVSPA [O60885 879-893]
4,324,LQGIFTRPSKLTRQ [O43611 94-107]
5,26.4,LQAELRRPPPAPAQ [O94766 54-67]
6,307,APQPPGRPPTPGPP [Q14957 973-987]
7,41.3,AAPPPAKPPPPPQP [O15399 900-914]
8,261,LPPLPHRPPQNPFV [P42694 1701-1715]

# The remaining lines, values behind:
row,Binder,"normalised SPOT signal, Boehringer light units (BLU); mean over the file's lines of this peptide"
1,LPRSPPRPPRLWSF [Q9UKB5 52-66],15300
2,LPPLPKRPALEKTN [Q9NR56 294-307],160
3,LPKHLRRPEPSKPQ [Q96M07 127-140],15.9
4,LPPDIERPYKAEPL [Q9Y4U3 288-301],75.1
5,LPQWPRRPGRRWPA [Q9Y6F2 30-43],820
6,LPLPPPRPPLLSAR [Q9P0P4 137-151],2320
7,LPKGLGRPGKGHYW [Q12946 84-97],207
8,LQFRIRRPRPPARG [Q96QS4 5-18],84.3
9,LPVSLTRPPKLVLH [Q9Y2E6 378-391],121
